Measured values published in publication PMC4790104 (Analytical chemistry, 2016).

B1: Ski3 (natural protein, UniProt P17883 1-1432, looked up)
chain: MSDIKQLLKEAKQELTNRDYEETIEISEKVLKLDPDNYFAHIFLGKALSSLPASNNVSSNRNLERATNHYVSAAKLVPDNLLAWKGLFLLFRTTEVVPDILSYDEYFDLCGQYADALLKQEQSQVELINDIKLLKKTHPDCQKAFYQHLKPGSLMAETIGRHLSTPQDALLNLIKILSNIETTEIGKTLSQNRLKLKASDPDYQIKLNSFSWEIIKNSEIDQLYNQLVNILADDQKRSEIENQWLEYRIKVLKSMPLDVKKDFFTKVKEMVEDMVLVNHQSLLAWQKYFEWTDYEDLDNMDAPLIIKYFKKFPKDPLAMILYSWLSSKLSKYDIKSLESANKPPEGHKKTEKETDIKDVDETNEDEVKDRVEDEVKDRVEDEVKDQDEEAKEDEEEDLDDIEIGLLEEEVVTVLTENIVKCKNNILAHRILCQYYLLTKEYEAALPYIKNGISLIAYNIKDLGVHLPLTKREFSLDLATVYTYVDAPKDHNAALKLYDNILSGDFSNIQAKMGKGIIFIERKNWKDAMTLLTQVHEQSPNNLEVLSELSWSKAHMGYMDEALAGLDTVIKGIKGMDLRSIDFRALNLWRQAKVYIMKHASINDAKQENVKCAFKLLIQSIKILDTFAPGFSTLGDIYCHYYKDHLRAFKCYFKAFDLDAGDYTAAKYITETYASKPNWQAASSIASRLIKGEKAKAELRSNNWPFRVVGIAHLEKQEESDSIEWFQSALRVDPNDVESWVGLGQAYHACGRIEASIKVFDKAIQLRPSHTFAQYFKAISLCDVGEYLESLDILEKVCQEAATEESFQIGLVEVLMRCSLDLYSQGFLLKSVSIAKDTIERIKIIISELKCENQQVWIYLSQVLRLFIWIESKVDTLPVESLVSIFENSQFSGSEEIDSVDNIKIDTLLDSTTDDNVSIACKFLILASKYSVSDQKFTDIAGTVRASYWYNIGISELTAFITLKEPQYRDAAIFAFKKSIQLQSNTSETWIGLGIATMDINFRVSQHCFIKATALEPKATNTWFNLAMLGLKKKDTEFAQQVLNKLQSLAPQDSSPWLGMALILEEQGDIIGSSKLFAHSFILSNGRSKAAQFMYAKNVLENHINNGDDERDIETVEKLTTASIALEQFFKKSPDSQFALQCALLTLERLHHYENANELANRLIGILEKKFEKTQDERELFNFAIIKGQFARIHLGLGNFELSIENADLSQGIISESSDEKSMKTKISNHICLGLSYFFLNDFDQTLNQFQELLSISKDSKHLVVLIAKVLYDVGESDTKEIALQELTEYIATSGADLLVTLTIAAMSILDDKREDLSIILEELKALPLSKQIIDKHKDAPYLIEEITKRLYRNDTGKQVWQRSAYFFPNNLKVWERLDKNIQRRIASNGQNKVTAEEMSKLYCESKNLRSIQRGMFLCPWNVTAVKALNECF

What was measured:
Experiment in all cases: native MS
Ski2 = target: T1, Ski2 (S. cerevisiae (endogenous in budding …, UniProt P35207 1-1287))
T1 sequence (looked up): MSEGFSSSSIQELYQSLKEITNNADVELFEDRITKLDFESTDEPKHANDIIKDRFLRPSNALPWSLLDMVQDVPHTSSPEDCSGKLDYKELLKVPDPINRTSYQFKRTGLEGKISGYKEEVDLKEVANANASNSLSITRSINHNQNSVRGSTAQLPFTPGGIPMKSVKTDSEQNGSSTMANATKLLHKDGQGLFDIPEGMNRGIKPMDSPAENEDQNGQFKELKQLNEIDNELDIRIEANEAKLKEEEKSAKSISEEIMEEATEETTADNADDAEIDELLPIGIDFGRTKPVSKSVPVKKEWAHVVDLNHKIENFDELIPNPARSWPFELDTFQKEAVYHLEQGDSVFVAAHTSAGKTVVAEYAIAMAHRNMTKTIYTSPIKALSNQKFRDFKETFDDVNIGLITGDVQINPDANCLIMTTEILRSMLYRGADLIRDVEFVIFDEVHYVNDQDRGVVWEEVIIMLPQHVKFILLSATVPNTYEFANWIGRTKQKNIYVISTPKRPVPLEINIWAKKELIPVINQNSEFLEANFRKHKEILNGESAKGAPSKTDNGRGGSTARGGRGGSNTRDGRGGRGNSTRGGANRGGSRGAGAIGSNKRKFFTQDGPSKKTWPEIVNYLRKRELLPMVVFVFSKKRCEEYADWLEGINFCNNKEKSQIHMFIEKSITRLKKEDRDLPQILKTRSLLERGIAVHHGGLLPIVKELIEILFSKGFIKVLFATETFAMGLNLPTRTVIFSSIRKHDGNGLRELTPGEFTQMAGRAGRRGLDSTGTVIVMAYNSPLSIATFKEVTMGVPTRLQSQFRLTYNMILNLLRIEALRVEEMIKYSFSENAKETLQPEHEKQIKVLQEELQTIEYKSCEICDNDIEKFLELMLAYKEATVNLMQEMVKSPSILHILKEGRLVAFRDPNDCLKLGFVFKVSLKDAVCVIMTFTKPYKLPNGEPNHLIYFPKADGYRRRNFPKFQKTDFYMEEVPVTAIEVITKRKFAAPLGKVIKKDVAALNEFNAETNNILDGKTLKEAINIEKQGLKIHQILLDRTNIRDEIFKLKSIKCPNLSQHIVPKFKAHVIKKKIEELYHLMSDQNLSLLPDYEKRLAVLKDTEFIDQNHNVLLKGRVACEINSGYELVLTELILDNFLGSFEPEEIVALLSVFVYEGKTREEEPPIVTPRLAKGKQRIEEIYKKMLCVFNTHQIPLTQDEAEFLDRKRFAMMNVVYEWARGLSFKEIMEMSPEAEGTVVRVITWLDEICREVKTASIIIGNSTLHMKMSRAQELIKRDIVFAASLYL

Ski3 = target: B1
native MS = target: the molecule itself

Row | Binder | stoichiometry N (Ski2) | stoichiometry N (Ski3) | stoichiometry N (native MS)
1 | Ski8 (natural protein, UniProt Q02793 1-397, looked up) MSKVFIATANAGKAHDADIFSVSACNSFTVSCSGDGYLKVWDNKLLDNENPKDKSYSHFVHKSGLHHVDVLQAIERDAFELCLVATTSFSGDLLFYRITREDETKKVIFEKLDLLDSDMKKHSFWALKWGASNDRLLSHRLVATDVKGTTYIWKFHPFADESNSLTLNWSPTLELQGTVESPMTPSQFATSVDISERGLIATGFNNGTVQISELSTLRPLYNFESQHSMINNSNSIRSVKFSPQGSLLAIAHDSNSFGCITLYETEFGERIGSLSVPTHSSQASLGEFAHSSWVMSLSFNDSGETLCSAGWDGKLRFWDVKTKERITTLNMHCDDIEIEEDILAVDEHGDSLAEPGVFDVKFLKKGWRSGMGADLNESLCCVCLDRSIRWFREAGGK | 2 | 2 | –
2 | B1 | 1 | – | –
3 | Ctf4 (natural protein, UniProt Q01454 1-927, looked up) MVSVIDKLVFDFGGKTLVSLAPDNNTLCVANKNGLTKILKTNNPEEEPETLDSSKLVSSIKCYSNSHFLMTTMQGDALRYNIDSSQEELLARFALPLRDCCVIHSGKMAVFGGDDLELILLELDDETHKKHAIKIDEQVSQISYNSQMNILAVSMINGKVQIFSLTSTIPNKVHELNDYIVANSYDDTHRDKILSNMMDDIDKDNDNDLSETADPDENNVADPEFCAANRICTRVAWHPKGLHFALPCADDTVKIFSIKGYSLQKTLSTNLSSTKAHFIDLQFDPLRGTYIAAVDLNNKLTVWNWETSEIHYTREFKRKITNIAWKIQADSKTLDLVLGTWSGSIAIVQNLAESVVSNIPDQSVAESSTKHGLFVDSESDLENLEGNDDINKSDKLFSDITQEANAEDVFTQTHDGPSGLSEKRKYNFEDEEDFIDDDDGAGYISGKKPHNEHSYSRVHKTHSFPISLANTGKFRYMPFSPAGTPFGFTDRRYLTMNEVGYVSTVKNSEQYSITVSFFDVGRFREYHFEDLFGYDLCFLNEKGTLFGQSKTGQIQYRPHDSIHSNWTKIIPLQAGERITSVAATPVRVIVGTSLGYFRSFNQFGVPFAVEKTSPIVALTAQNYRVFSVHYSQFHGLSYSLSELGTSSKRYYKRECPLPMSLPNINSDMKKDANLDYYNFNPMGIKSLFFSSYGDPCIFGSDNTLLLLSKWRSPEESKWLPILDSNMEIWKMSGGKETTDIHVWPLALAYDTLNCILVKGKHIWPEFPLPLPSEMEIRMPVFVKSKLLEENKAILNKKNEIGADTEAEEGEEDKEIQIPVSMAAEEEYLRSKVLSELLTDTLENDGEMYGNENEVLAALNGAYDKALLRLFASACSDQNVEKALSLAHELKQDRALTAAVKISERAELPSLVKKINNIREARYEQQLK | – | – | 3
